# Experiment: soluble on expression in E. coli; label from the status in PepcDB or PDB records
row,Sequence,soluble on expression in E. coli
1,MSLSFQMKYDIRLRFEVEGIVEKTDVIGAIFGQTENLFGDEFDLRELQDKGRLGRIIVEVKTKGGKSEGEIIIPSNLDRIETALIAAMVESVDKVGPYNSKFELIEIEDIRAEKLKKIIERAKGILSSWSKEKSLDIKEVINEISSAVKVGEITEYGPERLPAGPDVDKDPNLIIVEGRADVINLLRYGYKNVIAVEGATSRIPETLINLSKMKKTVIAFLDGDHGGDLILKELLSNNVKIDFVARAPIGREVEELTGKEIAKALSNMMPLTQYLKKVQEAEQAIAKNVIAKEEKPIQSETTQQVVQITLPQNILEEIKKLPGTLEGVLYDNNWNLIEKVQVRDIIPKLEAYEDNKVAYIIFDGVITQRLLDLASQKNIKMIIGARIGGINKRPQNVDILTFTDIISSEGHHHHHH,soluble
2,MAHHHHHHMNEIVINNLNYNYYNGIQRTRIKALQNVNLCFERGMRILVCGKNGAGKSTLLSIIAGKKLIKENEVLIFNKQAFHDTDISNKIGYVGEWWSEEYAMNISIKDFCFNYEYTKRYKNLLKLFELDENKIISNLSKGERKKVQIMVNIIVRKDIYIFDEATESLDLVSRKLLLE,soluble
3,MHCPFCRHPDSRVIDSRETDEGQAIRRRRSCPECGRRFTTVETAVLAVVKRSGVTEPFSREKVISGVRRACQGRQVDDDALNLLAQQVEDSVRAAGSPEIPSHDVGLAILGPLRELDEVAYLRFASVYRSFSSADDFAREIEALRAHRNLSAHS,soluble
4,MIIDIHGHYTTAPKALEDWRNRQIAGIKDPSVMPKVSELKISDDELQASIIENQLKKMQERGSDLTVFSPRASFMAHHIGDFNVSSTWAAICNELCYRVSQLFPDNFIGAAMLPQSPGVDPKTCIPELEKCVKEYGFVAINLNPDPSGGHWTSPPLTDRIWYPIYEKMVELEIPAMIHVSTSCNTCFHTTGAHYLNADTTAFMQCVAGDLFKDFPELKFVIPHGGGAVPYHWGRFRGLAQEMKKPLLEDHVLNNIFFDTCVYHQPGIDLLNTVIPVDNVLFASEMIGAVRGIDPRTGFYYDDTKRYIEASTILTPEEKQQIYEGNARRVYPRLDAALKAKGKLEHHHHHH,soluble
5,MSLMMFRYANFQIIKKEQELVISRGIIEKHQVTIPLRKIQAIKIKENIIRQLFGFVTVSIVSAGGGDREKEEGALTILFPMIHKKKLPHMLRTFTPEYTLEENCRRLPRREGHHHHHH,not soluble
6,MAHHHHHHMESINRNNNINKNEIDNKINNNNNMDVPIEGNEKSQEGDIIGQFGVGFYSSFVVSNKVEVFTRSYDNNSSKGYHWVSYGNGTFTLKEVDNIPKGTKIICHLKDSCKEFSNIQNVQKIVEKFSSFINFPVYVLKKKKILQT,soluble
7,MRDVTKGSFNDSPNNGFFEIQYKEDGVYLTVHPPIGKGKAVEVNDVISRLTQKKIVYDKEMVELAVQRASNVPVKIGEPQEELKLDATIDVNISPDKMKATMVIRPPDGGRMLTKDEMMEILKNSGVRYGINESMLENVSKYPVYNEIIVIAEGTPPINGQNGKVEFHFDLKKERKPTILEDGRVDFRELNLIESVKKGQVLCTLVPPLPGTPGRTVEDIEVPALDGKPAVLPKGKNVEISEDGQSLIAGIDGQVNYIDGKVSVFANYEVPADVDNSTGNISFVGNVIIRGNVLSGFTVEAGGSVEVMGVVEAAVIKADGDIILRRGMQGLGRGILKSGGDIIAKYIENSIIEAKGDIKAEAIMHSNVKCGNKLELSGKKGLLIGGKCKVGKEIVAKVIGSYLATHTDIEVGVDPQIKERYKELRDEIRKIEEDLVKAEQAITILKKLEAAGKLTPEKQELMARSIRTKIYYSNRLGELKEELIITEQRLQKEADGKIRVFDHIYPGTKVTIGTSMMYVKEDLQYCTLYRDGADIRVGPIDK,soluble
8,GIDPFTVRTRVSEGLVLAEPAKLMISTDGSASTADLTRATTTWNQQSNNLGASSKYVTSVLMDAGNTGVITITYVADQVGLPTAGNTLILSPYINDGNTRTALATAVAAGTRGTIDWACTSASNATATAQGFTGMAAGSVPQEFAPAQCR,soluble
9,MQLDTIHKITGTLILKSGLHIGAGDSEMRIGGTDSPVVKDPLTDQPYIPGSSLKGKIRSLLEWRHGLVVATGGAPYSFKHLAQDENNSAGRDVIKLFGGAPDKAEDQLVKNIGPTRLAFWDCPLNGDWKKEAADSRHLLTTEVKSENSINRIAGTAEHPRFIERVIAGARFDFTLTLKVLEGDDLLNTVLLGLRLLELDSLGGSGSRGYGKIKFAELKLDGTDLMEQFHAITPFNQTA,not soluble
